Experimental data published in US8455427B2, “Methods of modifying insulin signaling using biliverdin reductase” (University of Rochester, priority 2005, dated 2013).
Each block holds one molecule with its values, some of them ahead of it.

Key:
[1] = target: T1, insulin receptor tyrosine kinase (IRK) (Homo sapiens, UniProt P06213); experiment: BVR phosphorylation by the insulin receptor tyrosine kinase (IRK), in vitro [32P]-ATP assay; format: biochemical; details: for time course of phosphorylation by IRK: incubation with IRK up to 3-4 h, pH 8.0
T1 construct: the 48 kDa cytoplasmic domain of the β-subunit of IRK; purchased Biomol International (Plymouth, Pa.)
Protocol: BVR phosphoiylation by the insulin receptor tyrosine kinase (IRK): Phosphorylation of BVR by IRK was examined using GST-HBVR fusion protein and the 48 kDa cytoplasmic domain of the β-subunit of IRK. BVR (5 μg) was incubated in 50 μl of IRK kinase buffer containing 50 mM HEPES (pH 8.0), 20 mM MgCl2, 1 mM DTT in the presence of 0.05 μg IRK and 10 μM ATP labeled with 10 μCi [γ-^32P]-ATP. The reaction was started with the addition of labeled ATP and incubated for 2-4 h. Reactions were terminated by addition of Laemmli sample buffer and boiled for 3 min. Samples were subjected to 8% SDS-PAGE and transferred to PVDF membranes for autoradiography.

[2] = Reductase activity of purified BVR; format: biochemical, human; details: purified BVR not phosphorylated by IRK
Protocol: Measurement of BVR Reductase Activity: 293A cells treated with insulin were lysed in buffer containing a protease inhibitor cocktail and phosphatase inhibitors (10 mM NaF, […]). BVR activity was measured at pH 6.7 using NADH as the cofactor as described previously (Huang et al., J. Biol. Chem. 264:7844-9 (1989), which is hereby incorporated by reference in its entirety). The rate of conversion of biliverdin to bilirubin was determined as the increase in absorbance at 450 nm at 25° C. Specific activity is expressed as μmol of bilirubin/min/mg of protein.

human BVR = experiment: BVR autophosphorylation; format: biochemical; details: pH 8.4, 30 mM MnCl2, 2 h, 30° C.
Protocol: BVR autophosphorylation and kinase activity: To detect autophosphorylation of BVR, GST-hBVR of wild type (wt) and mutant variants were incubated in 50 mM HEPES buffer (pH 8.4) in the presence of 30 mM MnCl2 and 1 mM DTT for 2 h at 30° C. The reaction was started with the addition of 10 μM ATP labeled with 10 μCi [γ-^32P]-ATP and was stopped with the addition of Laemmli sample buffer. Samples were boiled for 3 min and applied to a 8% SDS-PAGE gels, transferred to a PVDF membrane, and then visualized by autoradiography. To measure kinase activity, GST-BVR (5 μg) was incubated in 50 μl kinase buffer containing 50 mM HEPES buffer (pH 8.4), 20 mM MgCl2, 30 mM MnCl2, 1 mM DTT and 10 μM ATP labeled with 10 μCi [γ-^32P]-ATP in the presence of 5 μg substrates: IRS-1 or Raytide or poly glu/tyr (4:1) for 2 h at 30° C. The reaction was started with the addition of ATP and terminated by adding 120 μl 10% H3PO4. 100 μl aliquots were directly transferred to P81 Whatman filters which were subsequently washed extensively in 0.75% phosphoric acid at room temperature. Finally, the filters were submerged in acetone for 5 min, dried, and retained counts were measured using a Beckman LS 6500 liquid scintillation counter (Beckman Coulter, Fullerton, Calif.).

293A cells = experiment: Insulin-mediated glucose uptake (2-deoxy 1-[3H] glucose); format: cell-based, human; details: insulin 15 min, vs controls infected with vector alone, p≦0.05
Protocol: Cell culture and transfection and infection of 293A: 293A cells were grown in 10 cm-plates with Dulbecco's Modified Eagle Medium (DMEM) (Invitrogen, Carlsbad, Calif.) containing 10% fetal bovine serum and 1% penicillin-G/streptomycin for 24 h or until a confluency of 70% was reached. Cells were subsequently transfected with 4 μg of pcDNA3 mutant BVR Y^198 using Transfectin Lipid Reagent (Bio-Rad, Hercules, Calif.), according to the manufacturer's procedure and incubated for 48 h at 37° C. In addition, non-transfected cells were infected with pSuper-Retro-siBVR for 24 h in the presence of 4 μg/ml polybrene. Cells were starved in serum-free DMEM 16 h prior to insulin treatment (50 nM).
Glucose uptake: Glucose uptake was assessed by measuring 2-deoxy 1-[^3H] glucose (2DG) absorption as described by (Braiman et al. (Mol. Endocrinol. 13:2002-12 (1999)), which is hereby incorporated by reference), with minor modifications. Briefly, after insulin treatment, cells in 6-wells plates were incubated in 1 ml PBS containing 5 mM glucose and 1 μCi/ml 2DG for 15 min. Solution was aspirated rapidly and wells were washed 3 times with cold PBS. Cells were solubilized by addition of 200 μl 1% (w/v) SDS. Radioactivity was measured and data was normalized to protein concentration. Non-specific uptake was determined in the presence of 200 mM of glucose and was subtracted from the total uptake. […]

T1 sequence (P06213 980-1382 limits assumed): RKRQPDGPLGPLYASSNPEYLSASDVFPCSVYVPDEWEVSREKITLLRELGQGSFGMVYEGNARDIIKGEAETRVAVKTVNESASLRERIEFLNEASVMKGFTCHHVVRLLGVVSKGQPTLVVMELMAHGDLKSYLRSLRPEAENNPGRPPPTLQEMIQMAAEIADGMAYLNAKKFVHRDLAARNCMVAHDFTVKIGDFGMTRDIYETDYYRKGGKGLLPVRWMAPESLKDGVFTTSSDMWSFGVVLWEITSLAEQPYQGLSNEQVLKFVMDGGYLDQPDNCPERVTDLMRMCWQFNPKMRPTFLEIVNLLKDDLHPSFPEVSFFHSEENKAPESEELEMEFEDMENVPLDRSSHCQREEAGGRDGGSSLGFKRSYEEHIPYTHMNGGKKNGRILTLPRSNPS

B1: biliverdin reductase (protein)
chain: MNAEPERKFGVVVVGVGRAGSVRMRDLRNPHPSSAFLNLIGFVSRRELGSIDGVQQISLEDALSSQEVEVAYICSESSSHEDYIRQFLNAGKHVLVEYPMTLSLAAAQELWELAEQKGKVLHEEHVELLMEEFAFLKKEVVGKDLLKGSLLFTSDPLEEDRFGFPAFSGISRLTWLVSLFGELSLVSATLEERKEDQYMKMTVCLETEKKSPLSWIEEKGPGLKRNRYLSFHFKSGSLENVPNVGVNKNIFLKDQNIFVQKLLGQFSEKELAAEKKRILHCLGLAEEIQKYCCSRK
modifications: left off: a dimerising Fc or GST
time course of phosphorylation by IRK [1]: detected when assessed at 1 h, and gradually increased up to 4 h
BVR reductase activity of the control [2]: 43.8 μmol per min per mg

time course of phosphorylation by IRK [1]: less effective substrate for IRK
decrease of BVR phosphorylation by IRK caused by point mutation ([1]; mutant vs wtBVR, IRK 2 h at 30° C.): ~70%
B2: Y^198: human BVR point mutant, DQYMK to DQFMK (protein, UniProt P53004 3-296, looked up, variant Y198F)
Biliverdin reductase A: AEPERKFGVVVVGVGRAGSVRMRDLRNPHPSSAFLNLIGFVSRRELGSIDGVQQISLEDALSSQEVEVAYICSESSSHEDYIRQFLNAGKHVLVEYPMTLSLAAAQELWELAEQKGKVLHEEHVELLMEEFAFLKKEVVGKDLLKGSLLFTAGPLEEERFGFPAFSGISRLTWLVSLFGELSLVSATLEERKEDQFMKMTVCLETEKKSPLSWIEEKGPGLKRNRYLSFHFKSGSLENVPNVGVNKNIFLKDQNIFVQKLLGQFSEKELAAEKKRILHCLGLAEEIQKYCCSRK
autophosphorylation of BVR mutants (human BVR): did not result in significant changes in autophosphorylation of BVR
insulin-mediated glucose uptake (293A cells): increased significantly
